# B1: Protein phosphatase 2C 16 (Arabidopsis thaliana (Mouse-ear cress)), Q9CAJ0 (parent)
# chain: MEEMTPAVAMTLSLAANTMCESSPVEITQLKNVTDAADLLSDSENQSFCNGGTECTMEDVSELEEVGEQDLLKTLSDTRSGSSNVFDEDDVLSVVEDNSAVISEGLLVVDAGSELSLSNTAMEIDNGRVLATAIIVGESSIEQVPTAEVLIAGVNQDTNTSEVVIRLPDENSNHLVKGRSVYELDCIPLWGTVSIQGNRSEMEDAFAVSPHFLKLPIKMLMGDHEGMSPSLTHLTGHFFGVYDGHGGHKVADYCRDRLHFALAEEIERIKDELCKRNTGEGRQVQWDKVFTSCFLTVDGEIEGKIGRAVVGSSDKVLEAVASETVGSTAVVALVCSSHIVVSNCGDSRAVLFRGKEAMPLSVDHKPDREDEYARIENAGGKVIQWQGARVFGVLAMSRSIGDRYLKPYVIPEPEVTFMPRSREDECLILASDGLWDVMNNQEVCEIARRRILMWHKKNGAPPLAERGKGIDPACQAAADYLSMLALQKGSKDNISIIVIDLKAQRKFKTRT
# partner: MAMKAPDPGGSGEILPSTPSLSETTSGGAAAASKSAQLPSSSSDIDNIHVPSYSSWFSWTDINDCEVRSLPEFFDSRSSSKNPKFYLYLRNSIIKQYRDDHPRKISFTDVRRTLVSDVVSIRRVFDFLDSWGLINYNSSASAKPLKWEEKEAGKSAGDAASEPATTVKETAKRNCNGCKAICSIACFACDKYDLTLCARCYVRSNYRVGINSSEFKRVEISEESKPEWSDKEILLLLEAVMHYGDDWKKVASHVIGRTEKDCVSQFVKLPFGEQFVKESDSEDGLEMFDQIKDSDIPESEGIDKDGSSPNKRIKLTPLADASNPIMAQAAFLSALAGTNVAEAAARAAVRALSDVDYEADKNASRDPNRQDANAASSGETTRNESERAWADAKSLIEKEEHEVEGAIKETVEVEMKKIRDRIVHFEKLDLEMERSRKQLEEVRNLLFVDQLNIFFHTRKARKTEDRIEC
# Variants of: B1
# Conditions: with swi3b_arath SWI3B
row,effect of a mutation on the interaction,Variant
1,disrupting interaction,MEEMTPAVAMTLSLAANTMCESSPVEITQLKNVTDAADLLSDSENQSFCNGGTECTMEDVSELEEVGEQDLLKTLSDTRSGSSNVFDEDDVLSVVEDNSAVISEGLLVVDAGSELSLSNTAMEIDNGRVLATAIIVGESSIEQVPTAEVLIAGVNQDTNTSEVVIRLPDENSNHLVKGRSVYELDCIPLWGTVSIQGNRSEMEDAFAVSPHFLKLPIKMLMGDHEGMSPSLTHLTGHFFGVYDGHDGHKVADYCRDRLHFALAEEIERIKDELCKRNTGEGRQVQWDKVFTSCFLTVDGEIEGKIGRAVVGSSDKVLEAVASETVGSTAVVALVCSSHIVVSNCGDSRAVLFRGKEAMPLSVDHKPDREDEYARIENAGGKVIQWQGARVFGVLAMSRSIGDRYLKPYVIPEPEVTFMPRSREDECLILASDGLWDVMNNQEVCEIARRRILMWHKKNGAPPLAERGKGIDPACQAAADYLSMLALQKGSKDNISIIVIDLKAQRKFKTRT [G246D]
